Measurements as given in article PMC6355003.

B1: Drp1 (dynamin-related protein Drp1), wild type [not stated] / GST-MiD51^133-463, wild type [human] (parent)
chain 1: MEALIPVINKLQDVFNTVGADIIQLPQIVVVGTQSSGKSSVLESLVGRDLLPRGTGIVTRRPLILQLVHVSQEDKRKTTGEENGVEAEEWGKFLHTKNKLYTDFDEIRQEIENETERISGNNKGVSPEPIHLKIFSPNVVNLTLVDLPGMTKVPVGDQPKDIELQIRELILRFISNPNSIILAVTAANTDMATSEALKISREVDPDGRRTLAVITKLDLMDAGTDAMDVLMGRVIPVKLGIIGVVNRSQLDINNKKSVTDSIRDEYAFLQKKYPSLANRNGTKYLARTLNRLLMHHIRDCLPELKTRINVLAAQYQSLLNSYGEPVDDKSATLLQLITKFATEYCNTIEGTAKYIETSELCGGARICYIFHETFGRTLESVDPLGGLNTIDILTAIRNATGPRPALFVPEVSFELLVKRQIKRLEEPSLRCVELVHEEMQRIIQHCSNYSTQELLRFPKLHDAIVEVVTCLLRKRLPVTNEMVHNLVAIELAYINTKHPDFADACGLMNNNIEEQRRNRLARELPSAVSRDKVASGGGGVGDGVQEPTTGNWRGMLKTSKAEELLAEEKSKPIPIMPASPQKGHAVNLLDVPVPVARKLSAREQRDCEVIERLIKSYFLIVRKNIQDSVPKAVMHFLVNHVKDTLQSELVGQLYKSSLLDDLLTESEDMAQRRKEAADMLKALQGASQIIAEIRETHLW
chain 2: MSLQEKLLTYYRNRAAIPAGEQARAKQAAVDICAELRSFLRAKLPDMPLRDMYLSGSLYDDLQVVTADHIQLIVPLVLEQNLWSCIPGEDTIMNVPGFFLVRRENPEYFPRGSSYWDRCVVGGYLSPKTVADTFEKVVAGSINWPAIGSLLDYVIRPAPPPEALTLEVQYERDKHLFIDFLPSVTLGDTVLVAKPHRLAQYDNLWRLSLRPAETARLRALDQADSGCRSLCLKILKAICKSTPALGHLTASQLTNVILHLAQEEADWSPDMLADRFLQALRGLISYLEAGVLPSALNPKVNLFAELTPEEIDELGYTLYCSLSEPEVLLQT

Variants of: B1
Assay: GST pull-down, SDS-PAGE band quantification
Details: with GST-MiD51^133-463, wild type [human], read off a plot
[1] = Apo (no nucleotide), parent: 0.15

| response (1 mM GDP-AlFx, parent: 0.085) [molar ratio] | response (1 mM GDP, parent: 0.14) [molar ratio] | response (1 mM GMP-PNP, parent: 0.69) [molar ratio] | response (1 mM GTP, parent: 0.37) [molar ratio] | response [1] [molar ratio] | response (parent: 0.15) [molar ratio] | Variant |
| --- | --- | --- | --- | --- | --- | --- |
| 0.05 | 0.05 | 0.065 | 0.06 | 0.07 | – | chain 1 G401A P402A R403A P404A |
| 0.34 | 0.36 | 0.43 | 0.4 | 0.36 | 0.36 | chain 1 K38A |
